Assays:
[1] = target: T1, human TNFα in complex with compound (1) (human, UniProt P01375 77-233); test: SPR (BIAcore), against apo human TNFα
T1 construct: also called human TNFα +compound (1); TNFα-compound (1) complex

[2] = target: T2, human TNFα in complex with compound (2) (human, UniProt P01375 77-233); test: SPR (BIAcore), against apo human TNFα
T2 construct: also called human TNFα +compound (2); compound-distorted human TNFα
T2 sequence (P01375 77-233 limits assumed, one chain of several): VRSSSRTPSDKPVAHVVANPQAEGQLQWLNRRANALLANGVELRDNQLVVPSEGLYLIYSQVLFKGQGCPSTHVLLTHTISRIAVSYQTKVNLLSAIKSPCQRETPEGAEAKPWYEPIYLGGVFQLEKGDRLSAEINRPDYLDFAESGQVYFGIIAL

T1 sequence (P01375 77-233 limits assumed, one chain of several): as above

B1: CA185_01979 mouse IgG1 (antibody, V domains shown)
VH: EVHLVESGPGLVKPSQSLSLTCSVTGYSITNSYWDWIRKFPGNKMEWMGYINYSGSTGYNPSLKSRISISRDTSNNQFFLQLNSITTEDTATYYCARGTYGYNAYHFDYWGRGVMVTVSS
VL: DIQMTQSPASLSASLEEIVTITCQASQDIGNWLSWYQQKPGKSPHLLIYGTTSLADGVPSRFSGSRSGTQYSLKISGLQVADIGIYVCLQAYSTPFTFGSGTKLEIKR
notes: mIgG1 heavy chain and kappa light chain; also called CA185_01979.0; VR0001842
- selective binding for compound-distorted over apo human TNFα (log) [1]: > 2 log
- selective binding for compound-distorted over apo human TNFα (log) [2]: > 2 log

Reference: patent US20220074947A1 (UCB, published 2022)
